pKd: −log10 of the molar value.

The data set has as its system DcGliZ full-length (Dichotomomyces cejpii FS110). Put plainly: SPR. Conditions: SPR: HBS-EP (10 mM HEPES pH 7.4, 150 mM NaCl, 0.005% P20), 22 C; EMSA: Beyotime chemiluminescent kit, 5 uL of 1 uM probe + 2 uL protein (~1 mg/mL in Methods …). In general terms: Mobility shift assays separate free from complexed probe on a gel.
For the sequence “TTACTTCTTGGTCTACTCCGTATTGTGAATCGAAATGAGATAGAAGTATAGTTCTACTGTACTGGTTTCTATCTGCTTAAAATAAATACAATTGTGCCTTCTATACAGATCAGTATGTAGAATGAACTGATAGACCTCCAGGAGGTTCTTCCTCCGAGCCTGCAACGCCCAAGAGGAGAACTGTGCATACGCCAGGACAGATTTTCGGCCTCCGAAAAGGACTGAGGATAGTATCTGCCATGTTTATATATAACTGAGGGAATAGACCAGGTAGATAACAGCAAAATCAACTAAACATCATC (double strand) [pN (gliN promoter)]”, the pKd (as a rule, −log10 of the Kd, conventionally taken in molar units) is 6.98.

On to “TAGTCTATCACTGAACAGTTGAATGAATTTGTTTCAAGACAGCTAAAGCTCCATTCTAGCCGTACGTACTGGTAGTTCTCCGCATAGAAACATATATCTCTCTGCTTGGTCAAAGTCAGGTATCGCCGACAAGTCTTAATATCTGCAGAGTATTCGGTGACCGAAATAGGGTCGGAATATAAGCCATATATATCACTGTTCTGGAAATCAAGAAAATATAACAGTTGAATACTCACTTTTCTAACATTCCAACAATCAGTTGAGCTCGATCACA (double strand) [pM (gliM promoter)]”, for which the pKd is 6.79.

On to “GTTTCTATGTCTATATCGGAGGAGTGATCAACGGCGTCCGAAAATTCGGCCCGCGGCTGTCTTAGGGCTGGCCTGCAGGTGTAGGGTTCATTATGAAAGACTGGTAGTATTATGCTGCTATTTAGTCAAAAGCAGAAGAACAGTTTGTCTTTAGACCTTGAATAGATATCTGTCAAGACAAGAGCCAAGAAAGTCCCATCACCATGGCAGACATGACCGAACGACCTTCTGATCTCGTTGTGGACAGGCTGGTTCTCTTCG (double strand) [pG (gliG promoter)]”, for which the pKd was 6.80.

The record behind these values is PMC7022936.
